Measurements taken from IntAct's records for PubMed 16980972.

Molecular target: asf1a_human ASF1A (UniProt Q9Y294)
Sequence (Q9Y294 whole entry): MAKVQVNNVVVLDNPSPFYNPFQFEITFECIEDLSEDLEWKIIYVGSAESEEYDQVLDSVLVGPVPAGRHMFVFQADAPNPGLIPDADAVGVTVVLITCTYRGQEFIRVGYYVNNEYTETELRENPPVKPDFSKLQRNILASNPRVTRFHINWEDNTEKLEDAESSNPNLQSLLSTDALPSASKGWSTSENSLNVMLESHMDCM

effect of a mutation on the interaction: disrupting interaction
Substance: Chromatin assembly factor 1 subunit B (Homo sapiens) (from UniProt Q13112) R483A;R499A
